Data taken from paper doi:10.64898/2025.12.10.693372 (bioRxiv, 2025).

Tests used:
[1] = target: T1, SARS-CoV-2 Omicron JD.1.1 spike (S-6P) (SARS-CoV-2 Omicron JD.1.1, S-GSAS/6P (furin cleavage site, residues 682–685) | F817P | A892P | A899P | …); test: cryo-EM structure; conditions: both partners purified
T1 construct: also called JD.1.1 S-6P; Omicron JD.1.1 S-trimer (S-6P)

[2] = target: T2, SARS-CoV-2 Omicron LP.8.1 spike (S-6P) (SARS-CoV-2 Omicron LP.8.1, S-GSAS/6P (furin cleavage site, residues 682–685) | F817P | A892P | A899P | …); test: cryo-EM structure; conditions: both partners purified
T2 construct: also called LP.8.1 S-6P; Omicron LP.8.1.1 spike (S-6P)

B1: R102-9 Fab (Fab, V domains shown)
VH: EVQLVESGGGLVQPGGSLRLSCAASGIIVSRNYMSWVRQAPGKRPEWVSLIYPGGSTFYADSVKGRFTISRDNSKNMLFLQMNSLRAEDTAVYYCARDLTIRGEASWGQGTLVTVSS
VL: EIVMTQSPATLSVSPGERATLSCRASQSFNSNLAWYQQKPGQAPRLLIYGASTRATGIPARFSGSGSGTEFTLTISSLQSEDFAVYYCQQYGDWPLWTFGQGTKVEIK
[1]
  stoichiometry N: 3 Fabs per S-trimer

B2: ZL525 Fab (Fab, V domains shown)
V domain 1: QVQLVQSGAEVKKPGSSMKVSCQASGGTFSSHPISWIRQAPGQGLEWMGRIIPIAGMTDYGQKFQGRITITADTSTSTSYVELRGLRSQDTAFYYCAKDVGYSDYGSAYYFHTWGQGTLITVSS
V domain 2: QSVLTQPPSVSGAPGQRVTISCTGSNSNIGAGYDVHWYQQLPGTAPKLLIYRNNKRPSGVPDRFSGSKSDTSASLAITGLQAEDEAHYYCQSFDSSLGGSLFGGGTKLAVL
[2]
  stoichiometry N: 3 Fabs per S-trimer

B3: C092 Fab (Fab, V domains shown)
VH: QVQLVQSGAEVKKPGSSVKVSCKASGGSFTNHFISWVRQAPGQGLEWMGRIIPILGTANYAQNFQGRVMMTADKSTSTAYMELSSLRSEDTAVYYCARDSGYSGYGSTYYMDVWGKGTTVTVSS
VL: QSVLTQPPSVSGAPGQRVTISCTGSNSNIGAGYDVHWYQQLPGAAPKLLIYGNNNRPSGVPDRFSGSKSDTSASLAITGLQVEDEADYYCQSYDSSLSDSVFGSGTKVTVL
[1]
  stoichiometry N: 3 Fabs per S-trimer

B4: ZL58 Fab (Fab, V domains shown)
VH: QLELVQSGGGLVQPGGSLRLSCAASEIAVSRNYMNWVRQGPGKGLEWVSIIYPGGSTFYADSVKGRFTISTDDSKNTLYLQMDSLSTDDTALYYCARQGPNGRNDFWGQGTLVTVSS
VL: DIQMTQSPSSLSASAGERVTITCQASQDINMYLNWYQQKPGKAPKLLIYDASNLETGVPSRFSGSGSVTEFTFTISSLQPEDIGTYYCHQYDSFPPTFGGGTKVDLK
[2]
  stoichiometry N: 3 Fabs per S-trimer
